From US20080193921, “Methods to identify agents that bind the flap-tip helix of RNA polymerase” (Wisconsin Alumni Research Foundation, published 2008) come the findings set out here.

Data set [1] has as its target σ^70 lacking region 1 (UniProt P00579). Put plainly: trypsin protection of the β flap-tip by σ70 lacking region 1; wild-type RNAP without σ: 9.2 ± 0.1.
In data set [2] the target is σ^70 lacking region 4 (UniProt P00579). The experiment in a line: trypsin protection of the β flap-tip by σ70 lacking region 4; wild-type RNAP without σ: 9.2 ± 0.1.
Data set [3] addresses σ^70 lacking region 1 and region 4 (UniProt P00579). Put plainly: trypsin protection of the β flap-tip by σ70 lacking regions 1 and 4; wild-type RNAP without σ: 9.2 ± 0.1.
In data set [4] the target is RNA polymerase sigma70 holoenzyme, beta L902P beta L902P (Escherichia coli) (UniProt P0A7Z4+P0A8V2+P0A8T7+P0A800+P00579). To be noted: +sigma70; SD 0.09.
Data set [5] deals with RNA polymerase beta F906A beta F906A (Escherichia coli) (UniProt P0A7Z4+P0A8V2+P0A8T7+P0A800). The following applies: -sigma70; SD 0.14.
Data set [6] has as its target RNA polymerase beta L901R beta L901R (Escherichia coli) (UniProt P0A7Z4+P0A8V2+P0A8T7+P0A800). To be noted: -sigma70; SD 0.05.
Data set [7] has as its target RNA polymerase sigma70 holoenzyme, beta L901Q beta L901Q (Escherichia coli) (UniProt P0A7Z4+P0A8V2+P0A8T7+P0A800+P00579). To be noted: +sigma70; SD 0.07.
Data set [8] concerns the target RNA polymerase core, wild-type (alpha2 beta beta' omega) (Escherichia coli) (UniProt P0A7Z4+P0A8V2+P0A8T7+P0A800). To be noted: [3H]UMP incorporation, -sigma70; SD 0.05.
Data set [9] deals with RNA polymerase sigma70 holoenzyme, beta delta(900-909) beta deletion 900-909 (Escherichia coli) (UniProt P0A7Z4+P0A8V2+P0A8T7+P0A800+P00579). To be noted: +sigma70; SD 0.05.
The target in data set [10] is RNA polymerase beta delta(900-909) beta deletion 900-909 (Escherichia coli) (UniProt P0A7Z4+P0A8V2+P0A8T7+P0A800). To be noted: -sigma70; SD 0.02.
Data set [11] addresses RNA polymerase beta L901Q beta L901Q (Escherichia coli) (UniProt P0A7Z4+P0A8V2+P0A8T7+P0A800). To be noted: -sigma70; SD 0.05.
In data set [12] the target is RNA polymerase sigma70 holoenzyme, beta I905N beta I905N (Escherichia coli) (UniProt P0A7Z4+P0A8V2+P0A8T7+P0A800+P00579). The following applies: +sigma70; SD 0.02.
Data set [13] concerns the target RNA polymerase beta L902P beta L902P (Escherichia coli) (UniProt P0A7Z4+P0A8V2+P0A8T7+P0A800). To be noted: -sigma70; SD 0.05.
Data set [14] has as its target RNA polymerase sigma70 holoenzyme, beta F906A beta F906A (Escherichia coli) (UniProt P0A7Z4+P0A8V2+P0A8T7+P0A800+P00579). The following applies: +sigma70; SD 0.15.
Data set [15] addresses RNA polymerase sigma70 holoenzyme, beta L901R beta L901R (Escherichia coli) (UniProt P0A7Z4+P0A8V2+P0A8T7+P0A800+P00579). The following applies: +sigma70; SD 0.07.
In data set [16] the target is RNA polymerase sigma70 holoenzyme, wild-type (Escherichia coli) (UniProt P0A7Z4+P0A8V2+P0A8T7+P0A800+P00579). To be noted: +sigma70; SD 0.1.
Data set [17] has as its target RNA polymerase beta I905N beta I905N (Escherichia coli) (UniProt P0A7Z4+P0A8V2+P0A8T7+P0A800). To be noted: -sigma70; SD 0.04.
In data set [18] the target is T1, RNA polymerase core, wild-type (alpha2 beta beta' omega) (Escherichia coli, UniProt P0A7Z4;P0A8V2;P0A8T7;P0A800 P0A7Z4:1-329,P0A8V2:1-1342,P0A8T7:1-1407,P0A800:2-91). Put plainly: 5-iodoU UV crosslinking in paused TEC. The following applies: tags: N-terminal His6 on beta; beta' C-terminal intein-CBD removed by DTT; chain copies: 2,1,1,1; label: 32P; hairpin.
The target of data set [19] is RNA polymerase beta K909C (Escherichia coli, UniProt P0A7Z4;P0A8V2;P0A8T7;P0A800 P0A7Z4:1-329,P0A8V2:1-1342,P0A8T7:1-1407,P0A800:2-91, beta K909C). The experiment in a line: UV crosslinking in paused TEC; crosslink maps between 903 and 909. The following applies: tags: N-terminal His6 on beta; chain copies: 2,1,1,1; label: 32P; hairpin. On the procedure:
(§1) First, paused TECs containing either wild-type or βK909C mutant RNAPs and a wild-type pause hairpin loop derivatized with 5-iodoU and [α-³²P]CMP were prepared (FIG. 1A). The 5-iodoU crosslink was mapped by cleaving the crosslinked β subunit either to completion with trypsin or partially with 2-nitro-5-thiobenzoic-acid (NTCB), and by separating the cleavage products on SDS polyacrylamide gels (8-16% gradient; FIG. 6A). Trypsin cleavage was performed prior to disruption of the TEC, which results in cleavage within β only at R903 and K909 (Boruhkov et al., 1991). […] NTCB cleaves at Cys residues, which are present at seven positions in wild-type β and eight in βK909C.

For data set [20], the target named is T1, RNA polymerase core, wild-type (alpha2 …). The experiment in a line: UV crosslinking (5-iodoU) in paused TEC; mapped to beta 904-908. The following applies: tags: N-terminal His6 on beta; beta' C-terminal intein-CBD removed by DTT; chain copies: 2,1,1,1; label: 32P; hairpin. On the procedure: as §1
Data set [21] concerns the target RNA polymerase beta F906A (Escherichia coli, UniProt P0A7Z4;P0A8V2;P0A8T7;P0A800 P0A7Z4:1-329,P0A8V2:1-1342,P0A8T7:1-1407,P0A800:2-91, beta F906A). The experiment in a line: 4-thioU crosslink retained while 5-iodoU crosslink lost; hairpin-flap interaction not altered. To be noted: tags: N-terminal His6 on beta, beta' intein-CBD removed by DTT, chain copies: 2,1,1,1, label: 32P.

Turning to “wild-type Escherichia coli RNA polymerase (core enzyme, α, β, β′ subunits)”, the β cleavage rate + σ^70 in data set [1] came to 0.0062 s⁻¹; in [2], 0.011 s⁻¹; in data set [3], 0.011 s⁻¹.

In the case of poly(dA dT), the binding signal (relative to wild-type core) in data set [4] was 1.5; in [5], 1; in data set [6], 1.2; in data set [7] it was 1.4; in data set [8], 1; in [9], 0.9. For the same molecule, the binding signal (relative to wild-type core) in data set [10] was determined as 0.95; in data set [11], 1.2; in data set [12] it was 1.3; in data set [13], 1.2; in data set [14], 2.1; in data set [15], 1.5. The binding signal (relative to wild-type core) in [16] amounted to 2; in data set [17], 1.

Take CCUGCUUCGGCAGGCGAUGUGUGCUG (ssRNA, 5-iodoU in hairpin loop) [his pause RNA, tetraloop hairpin]: the binding result in data set [18] was “binds”.

Regarding CCUGACUAGUCUUUCAGG (ssRNA, 5-iodoU or 4-thioU in hairpin loop) [his pause RNA hairpin, wild-type], the binding result in data set [19], in data set [20] and in [21] was “binds” each time.
